Results on seven sequences are retold here after the DeepSol protein solubility set.

The nature of this data set: soluble on expression in E. coli; label from the status in PepcDB or PDB records.
Regarding “MGSDKIHHHHHHMANSHDGNAQVLSYPKHPPKDFSDLAATLIRNGLGRVDAETLERHLEQVGYFRLKGYWYQFLSPSSSCDYKHVLPFRKGTQFQQIWCRYIFDQELRTLVFDGIITFEIYLKSFLAHELSLFGGEFGYTKPEGLPELSFDDYLACINSLRASFTKSNLPYLKHFKRTYKDPLPPYWMIVGCLSYGTLKGYFYQGSPDSVKRKLAAKLHIFNPNTNPEVHGDIKILSNWLETIRQVRNMVAHHDRFWNETSTRIVPKLPKHRSGLHANEWWGNDWDAFRTDSTGPAAFLTMENYLLQQIDGSAWKNKFISLMDRYPEILATEMGFPEDWRSLALWS”, the “soluble on expression in E. coli” value is on record as “not soluble”.
For the sequence “ENKILKIEKGTSGWGGPLYIKKEGNRNKILSMTAGGIHEVTLKIKELLGCEIVDGFKTGVSDEEVAVVIIDCGGTARCGVYPKKKIPTINVNPVGKTGPLAKFITEEYYVSDVNPNCISVVDGEDMPQKSQENKSENKSSIRKPDNYDEVKSKAQGEYAKKNIILSIGQGAGQVVSKFYDAGRDTIQMVMNN”, the “soluble on expression in E. coli” value is “not soluble”.
With “SGCIGSRTVGNEVIAVDWKGLKDVDQINMDSTSSLHGSSLHRPSTEQTRTDFSWDGINLSMEDTTSILPKLKRNSNAYGIGALAKSSFSGISRSMKDHVTKPTAMGQGRVAHMIEWQGWGKTPAVQPQHSHESVRRDTDAYSDLSDGEKEARFLAGVMEQFAISEATLMAWSSMDGEDMSVNSTQEPLGCNYSDNYQELMDSQDALAQAPMDGWPHSYVSQGMYCLGSSDAWEASDQSLIASPATGSYLGPAFDDSQPSLHEMGPSQPASGYSALEPPPLLGGDTDWAPGVGAVDLARGPAEEEKRPLAPEEGEDAGCQDLESLSPREDPEMSTTLSRKVSDVTSSGVQSFDEEEGEANN”, the “soluble on expression in E. coli” value was “soluble”.
For the sequence “MHPVILFDGDCLFCHASAHWIAARDRQAVFRFAAQQSIVGQALLAKQEMSAEDSVVLIENGCCYVKSEAVLRIGRRLAWPWNWLAAAGFLIPRLLRDHMYDAIANRRHRLVPKRDHCQLPSPELRARFLDELPQ”, the “soluble on expression in E. coli” value was “not soluble”.
For “MERAESSSTEPAKAIKPIDRKSVHQICSGQVVLSLSTAVKELVENSLDAGATNIDLKLKDYGVDLIEVSDNGCGVEEENFEGLTLKHHTSKIQEFADLTQVETFGFRGEALSSLCALSDVTISTCHASAKVGTRLMFDHNGKIIQKTPYPRPRGTTVSVQQLFSTLPVRHKEFQRNIKKEYAKMVQVLHAYCIISAGIRVSCTNQLGQGKRQPVVCTGGSPSIKENIGSVFGQKQLQSLIPFVQLPPSDSVCEEYGLSCSDALHNLFYISGFISQCTHGVGRSSTDRQFFFINRRPCDPAKVCRLVNEVYHMYNRHQYPFVVLNISVDSECVDINVTPDKRQILLQEEKLLLAVLKTSLIGMFDS”, the “soluble on expression in E. coli” value is on record as “soluble”.
The same measure for “MSLKKEVVVIGGGIVGLSCAYSMHKLGHKVCVIEKNDGANGTSFGNAGLISAFKKAPLSCPGVVLDTLKLMLKNQAPLKFHFGLNLKLYQWILKFVKSANAKSTHRTMALFERYGWLSIDMYHQMLKDGMDFWYKEDGLLMIYTLEESFEKKLKTCDNSGAYKILSAKETKEYMPVVNDNICGSVLLTENAHVDPGEVMHSLQEYLQNVGVEFLYNEEVIDFEFKNNLIEGVITHKEKIQAETIILATGANPTLIKKTKNDFLMMGAKGYSITFKMPEELKPKTSSLFADIFMAMTPRRDTVRITSKLELNTNNALIDKEQIANMKKNLAAFTQPFEMKDAIEWCGFRPLTPNDIPYLGYDKRYKNLIHATGLGWLGITFGPAIGKIIANLSQDGANEKNADIMLFSAFFRDEGHHHHHH”: “not soluble”; for “MAQPQLYLPEPFKIAYRKVGQCRRFQQLKKKNGSFKRKGIERWHRAVSTNLLKQNVLVPKEESSSDSDMGFHESQQNQKSNLKTKVKTAFGRMLSYKYRSKPACASQEGSTDHKEALLSNTQSLLPRIVKEFSSPKLFTAKMRKLSENATIQLDVVEAETEEITQGNTLLRARRTTKRLSVTSLPSGLQKGPYSPKKRPHFPALKKKKRGMENILRKSDLTVGKLQMQVDDLIETVTDKSMKLLAQRHAELQQCEFLGDEILQSSKQFQRISKRTMRKYKLKNMTTKGPGDS”: “soluble”.
